# According to US20130004416A1 (published 2013):
# T1: human IL-12 (human, UniProt P29459 23-219; P29460 23-328)
# T1 construct: ABT874 is said to be against human IL-12p40; also called hIL-12
# T1 sequence (looked up) 1: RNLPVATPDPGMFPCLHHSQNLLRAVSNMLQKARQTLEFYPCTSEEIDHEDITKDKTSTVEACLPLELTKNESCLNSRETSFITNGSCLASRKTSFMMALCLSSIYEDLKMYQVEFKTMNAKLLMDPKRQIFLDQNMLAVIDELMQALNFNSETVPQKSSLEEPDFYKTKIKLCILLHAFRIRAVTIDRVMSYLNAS
# T1 sequence (looked up) 2: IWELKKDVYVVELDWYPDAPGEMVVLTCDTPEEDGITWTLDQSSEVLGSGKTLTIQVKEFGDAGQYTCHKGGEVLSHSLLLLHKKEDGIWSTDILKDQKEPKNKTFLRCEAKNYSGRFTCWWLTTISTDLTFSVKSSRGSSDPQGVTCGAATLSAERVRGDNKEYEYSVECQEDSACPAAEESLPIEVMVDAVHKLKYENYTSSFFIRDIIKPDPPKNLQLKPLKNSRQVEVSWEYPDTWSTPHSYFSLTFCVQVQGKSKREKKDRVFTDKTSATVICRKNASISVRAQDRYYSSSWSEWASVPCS
# Key:
# [1] = target: T1, human IL-12; assay: SPR (Biacore)
# [2] = target: T2, human IL-18 (human, UniProt Q14116 37-193); assay: SPR (Biacore)
# T2 construct: also called hIL-18
# [3] = target: T1, human IL-12; assay: cell-based or functional assay
# [4] = target: T2, human IL-18; assay: cell-based or functional assay
Binder,Kd [1],Kd [2],"Potency (IC50, M), IL-12-induced IFN-γ production by PHA blast cells [3]","Potency (IC50, M), KG-1 bioassay [4]"
DVD1812SL (DVD1812HC-SL / DVD1812LC-SL) (bispecific antibody) chain 1: not shown chain 2: EIVMTQSPATLSVSPGERATLSCRASESISSNLAWYQQKPGQAPRLFIYTASTRATDIPARFSGSGSGTEFTLTISSLQSEDFAVYYCQQYNNWPSITFGQGTRLEIKRTVAAPQSVLTQPPSVSGAPGQRVTISCSGSRSNIGSNTVKWYQQLPGTAPKLLIYYNDQRPSGVPDRFSGSKSGTSASLAITGLQAEDEADYYCQSYDRYTHPALLFGTGTKVTVLGTVAAPSVFIFPPSDEQLKSGTASVVCLLNNFYPREAKVQWKVDNALQSGNSQESVTEQDSKDSTYSLSSTLTLSKADYEKHKVYACEVTHQGLSSPVTKSFNRGEC,1.82 nM,0.191 nM,3.66e-10 M,4e-11 M
DVD1812LL (DVD1812HC-LL / DVD1812LC-LL) (bispecific antibody) heavy: not shown light: EIVMTQSPATLSVSPGERATLSCRASESISSNLAWYQQKPGQAPRLFIYTASTRATDIPARFSGSGSGTEFTLTISSLQSEDFAVYYCQQYNNWPSITFGQGTRLEIKRTVAAPSVFIFPPQSVLTQPPSVSGAPGQRVTISCSGSRSNIGSNTVKWYQQLPGTAPKLLIYYNDQRPSGVPDRFSGSKSGTSASLAITGLQAEDEADYYCQSYDRYTHPALLFGTGTKVTVLG,0.113 nM,0.162 nM,1.18e-10 M,7.8e-11 M
